Experimental data as given in patent US20190100563A1 (UNIVERSITY COURT OF THE UNIVERSITY OF EDINBURGH, published 2019).
Where “and” joins values, the source holds several entries; their conditions need not be identical. Identical values can stand only once.

T1: CFH 8-15 (recombinant fragment, CCPs 8-15 of human CFH) (human, UniProt P08603 446-928)
T1 construct: also called CF8-15
T1 sequence: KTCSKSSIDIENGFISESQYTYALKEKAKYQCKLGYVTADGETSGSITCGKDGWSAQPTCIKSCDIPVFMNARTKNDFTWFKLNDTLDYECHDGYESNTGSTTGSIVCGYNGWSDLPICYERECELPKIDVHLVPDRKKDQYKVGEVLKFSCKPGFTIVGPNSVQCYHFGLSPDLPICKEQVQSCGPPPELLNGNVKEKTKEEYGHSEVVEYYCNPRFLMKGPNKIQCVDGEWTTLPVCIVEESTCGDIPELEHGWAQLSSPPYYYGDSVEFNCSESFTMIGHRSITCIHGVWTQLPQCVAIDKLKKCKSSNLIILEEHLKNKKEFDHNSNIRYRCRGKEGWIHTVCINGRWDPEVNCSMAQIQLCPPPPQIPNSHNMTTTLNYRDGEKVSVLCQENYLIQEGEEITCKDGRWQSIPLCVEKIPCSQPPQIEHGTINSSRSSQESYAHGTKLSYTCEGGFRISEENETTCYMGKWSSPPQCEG

T2: CFH 8-9 (recombinant fragment, CCPs 8-9 of human CFH) (human, UniProt P08603 446-566)
T2 sequence: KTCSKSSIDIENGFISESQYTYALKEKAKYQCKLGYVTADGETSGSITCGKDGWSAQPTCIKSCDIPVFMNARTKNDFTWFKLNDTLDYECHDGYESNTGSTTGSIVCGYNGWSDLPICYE

T3: CFH 10-11 (recombinant fragment, CCPs 10-11 of human CFH) (human, UniProt P08603 567-686)
T3 sequence: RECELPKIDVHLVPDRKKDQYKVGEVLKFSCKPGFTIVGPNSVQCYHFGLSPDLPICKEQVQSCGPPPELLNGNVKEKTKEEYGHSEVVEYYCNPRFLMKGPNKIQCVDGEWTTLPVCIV

T4: CFH 6-8 (recombinant construct corresponding to CFH CCPs 6-8) (human, UniProt P08603 321-509)
T4 sequence: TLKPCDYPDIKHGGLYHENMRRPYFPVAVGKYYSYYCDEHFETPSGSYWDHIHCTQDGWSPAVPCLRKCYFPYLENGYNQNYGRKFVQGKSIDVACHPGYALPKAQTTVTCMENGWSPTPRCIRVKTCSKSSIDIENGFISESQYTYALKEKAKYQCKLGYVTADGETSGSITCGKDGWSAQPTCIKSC

T5: CFH 10-15 (recombinant fragment, CCPs 10-15 of human CFH) (human, UniProt P08603 567-928)
T5 sequence: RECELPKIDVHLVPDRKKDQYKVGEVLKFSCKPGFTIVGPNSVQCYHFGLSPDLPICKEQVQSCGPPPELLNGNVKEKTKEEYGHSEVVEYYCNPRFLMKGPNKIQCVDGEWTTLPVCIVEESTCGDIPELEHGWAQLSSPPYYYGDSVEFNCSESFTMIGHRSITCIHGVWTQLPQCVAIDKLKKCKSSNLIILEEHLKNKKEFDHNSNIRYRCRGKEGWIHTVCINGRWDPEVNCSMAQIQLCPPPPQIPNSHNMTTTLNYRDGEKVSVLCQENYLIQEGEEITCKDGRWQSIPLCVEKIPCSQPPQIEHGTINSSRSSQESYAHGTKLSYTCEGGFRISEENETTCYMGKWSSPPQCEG


How the values were obtained:
[1] = biological target: T6, Human complement factor H purified from plasma (human, UniProt P08603 19-1231); assay: cell-based or functional assay
[2] = biological target: T7, Recombinant human CFH, wild-type sequence, from Pichia pastoris (human, UniProt P08603 19-1231); assay: cell-based or functional assay
[3] = biological target: T8, Human C3d (plasma-purified) (human, UniProt P01024 1002-1303); assay: SPR, amine-coupled C3 fragments on C1 chip
T8 construct: domain: TED; also called TED of C3b

[4] = biological target: Human C3c (plasma-purified) (human, UniProt P01024 23-667; P01024 749-954; P01024 1321-1663); assay: SPR, amine-coupled C3 fragments on C1 chip
[5] = biological target: Human C3b (plasma-purified) (human, UniProt P01024 23-667; P01024 749-1663); assay: SPR, amine-coupled C3 fragments on C1 chip
[6] = biological target: T1, CFH 8-15 (recombinant fragment, CCPs …); assay: SPR, sPspCN on NTA/Ni2+ chip, CFH 8-15 as analyte, 1:1 kinetic fit
[7] = biological target: T9, Recombinant human CFH (D1119G) from Pichia pastoris (human, UniProt P08603 19-1231); assay: SPR, sPspCN on NTA/Ni2+ chip, rCFH-D1119G as analyte, 1:1 kinetic fit
T9 construct: also called rCFH-D1119G; rCFH (D1119G)

[8] = biological target: T2, CFH 8-9 (recombinant fragment, CCPs 8-9 …); assay: SPR, sPspCN on NTA/Ni2+ chip, CFH 8-9 concentration series, equilibrium method
[9] = biological target: T6, Human complement factor H purified from …; assay: SPR, sPspCN on NTA/Ni2+ chip, CFH as analyte, 1:1 kinetic fit
[10] = biological target: T3, CFH 10-11 (recombinant fragment, CCPs …); assay: SPR, sPspCN on NTA/Ni2+ chip
[11] = biological target: T4, CFH 6-8 (recombinant construct …); assay: SPR, sPspCN on NTA/Ni2+ chip
[12] = biological target: T1, CFH 8-15 (recombinant fragment, CCPs …); assay: SPR, sPspCN on NTA/Ni2+ chip
[13] = biological target: T6, Human complement factor H purified from …; assay: not stated there (SPR in the examples)
[14] = biological target: T7, Recombinant human CFH, wild-type …; assay: SPR, sPspCN on NTA/Ni2+ chip, rCFH as analyte, 1:1 kinetic fit
[15] = biological target: T5, CFH 10-15 (recombinant fragment, CCPs …); assay: SPR, immobilised sPspCN

T6 sequence (P08603 19-1231 limits assumed): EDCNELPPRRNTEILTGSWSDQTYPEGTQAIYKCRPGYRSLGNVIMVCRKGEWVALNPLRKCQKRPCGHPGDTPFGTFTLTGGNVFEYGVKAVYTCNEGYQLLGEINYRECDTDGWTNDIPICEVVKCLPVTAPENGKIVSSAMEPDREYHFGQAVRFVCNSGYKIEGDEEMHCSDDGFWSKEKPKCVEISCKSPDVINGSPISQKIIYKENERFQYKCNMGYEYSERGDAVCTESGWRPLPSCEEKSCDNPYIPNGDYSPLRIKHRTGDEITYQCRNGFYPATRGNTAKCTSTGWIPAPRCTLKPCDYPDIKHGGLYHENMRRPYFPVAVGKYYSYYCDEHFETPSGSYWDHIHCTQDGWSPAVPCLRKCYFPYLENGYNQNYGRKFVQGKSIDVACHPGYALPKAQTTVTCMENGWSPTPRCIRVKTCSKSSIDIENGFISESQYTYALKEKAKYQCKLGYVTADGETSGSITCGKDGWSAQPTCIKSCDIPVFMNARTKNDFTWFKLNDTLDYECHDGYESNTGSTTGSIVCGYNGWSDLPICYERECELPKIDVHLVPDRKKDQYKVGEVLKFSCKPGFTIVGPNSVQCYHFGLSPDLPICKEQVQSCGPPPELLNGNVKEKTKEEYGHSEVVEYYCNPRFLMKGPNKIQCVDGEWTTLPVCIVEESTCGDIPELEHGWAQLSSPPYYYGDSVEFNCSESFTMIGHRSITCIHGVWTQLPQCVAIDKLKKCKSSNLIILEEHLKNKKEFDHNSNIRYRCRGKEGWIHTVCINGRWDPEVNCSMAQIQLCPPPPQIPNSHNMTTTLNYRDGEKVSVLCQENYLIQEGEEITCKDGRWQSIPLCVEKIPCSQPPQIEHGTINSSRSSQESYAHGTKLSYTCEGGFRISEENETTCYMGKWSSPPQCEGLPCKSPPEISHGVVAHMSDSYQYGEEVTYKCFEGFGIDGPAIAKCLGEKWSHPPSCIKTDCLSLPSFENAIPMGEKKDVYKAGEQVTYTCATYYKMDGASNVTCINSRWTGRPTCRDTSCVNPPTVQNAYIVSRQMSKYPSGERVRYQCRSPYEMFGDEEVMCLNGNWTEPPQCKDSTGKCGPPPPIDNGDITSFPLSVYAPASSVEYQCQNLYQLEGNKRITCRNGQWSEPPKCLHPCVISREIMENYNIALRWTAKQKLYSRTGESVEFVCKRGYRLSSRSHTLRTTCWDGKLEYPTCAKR
T7 sequence (P08603 19-1231 limits assumed): as above
T9 sequence (P08603 19-1231 D1119G limits assumed): as the sequence (P08603 19-1231 limits assumed) above, with D1101G counted along it
T8 sequence (P01024 1002-1303 limits assumed): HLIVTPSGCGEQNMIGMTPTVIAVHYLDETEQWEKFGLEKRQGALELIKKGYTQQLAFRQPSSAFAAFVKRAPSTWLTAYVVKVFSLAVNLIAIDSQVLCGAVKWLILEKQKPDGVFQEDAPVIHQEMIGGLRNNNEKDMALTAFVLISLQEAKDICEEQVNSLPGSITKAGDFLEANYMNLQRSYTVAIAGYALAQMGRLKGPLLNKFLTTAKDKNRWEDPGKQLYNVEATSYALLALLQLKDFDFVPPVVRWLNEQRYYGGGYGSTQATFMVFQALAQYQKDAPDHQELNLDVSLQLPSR
Chain of Human C3b (plasma-purified) (P01024 23-667 limits assumed, chain 1 of 2): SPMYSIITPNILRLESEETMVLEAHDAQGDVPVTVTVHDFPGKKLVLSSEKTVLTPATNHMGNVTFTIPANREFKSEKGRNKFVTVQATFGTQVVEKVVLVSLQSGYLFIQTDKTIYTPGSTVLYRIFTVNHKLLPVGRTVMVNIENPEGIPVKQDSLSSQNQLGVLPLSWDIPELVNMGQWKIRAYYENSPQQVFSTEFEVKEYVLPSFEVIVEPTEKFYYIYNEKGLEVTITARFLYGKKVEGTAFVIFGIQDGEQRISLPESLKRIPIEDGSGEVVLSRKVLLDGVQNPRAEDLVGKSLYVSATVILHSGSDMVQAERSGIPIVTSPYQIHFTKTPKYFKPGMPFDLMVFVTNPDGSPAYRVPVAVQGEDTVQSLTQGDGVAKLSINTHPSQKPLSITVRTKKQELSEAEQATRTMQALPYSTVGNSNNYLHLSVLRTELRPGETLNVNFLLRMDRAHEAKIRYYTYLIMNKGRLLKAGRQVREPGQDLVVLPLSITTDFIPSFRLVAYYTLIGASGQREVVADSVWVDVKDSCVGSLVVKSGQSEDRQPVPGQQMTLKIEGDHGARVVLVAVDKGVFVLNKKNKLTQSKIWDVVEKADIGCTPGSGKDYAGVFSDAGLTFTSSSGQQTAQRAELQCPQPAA
Chain of Human C3b (plasma-purified) (P01024 749-1663 limits assumed, chain 2 of 2): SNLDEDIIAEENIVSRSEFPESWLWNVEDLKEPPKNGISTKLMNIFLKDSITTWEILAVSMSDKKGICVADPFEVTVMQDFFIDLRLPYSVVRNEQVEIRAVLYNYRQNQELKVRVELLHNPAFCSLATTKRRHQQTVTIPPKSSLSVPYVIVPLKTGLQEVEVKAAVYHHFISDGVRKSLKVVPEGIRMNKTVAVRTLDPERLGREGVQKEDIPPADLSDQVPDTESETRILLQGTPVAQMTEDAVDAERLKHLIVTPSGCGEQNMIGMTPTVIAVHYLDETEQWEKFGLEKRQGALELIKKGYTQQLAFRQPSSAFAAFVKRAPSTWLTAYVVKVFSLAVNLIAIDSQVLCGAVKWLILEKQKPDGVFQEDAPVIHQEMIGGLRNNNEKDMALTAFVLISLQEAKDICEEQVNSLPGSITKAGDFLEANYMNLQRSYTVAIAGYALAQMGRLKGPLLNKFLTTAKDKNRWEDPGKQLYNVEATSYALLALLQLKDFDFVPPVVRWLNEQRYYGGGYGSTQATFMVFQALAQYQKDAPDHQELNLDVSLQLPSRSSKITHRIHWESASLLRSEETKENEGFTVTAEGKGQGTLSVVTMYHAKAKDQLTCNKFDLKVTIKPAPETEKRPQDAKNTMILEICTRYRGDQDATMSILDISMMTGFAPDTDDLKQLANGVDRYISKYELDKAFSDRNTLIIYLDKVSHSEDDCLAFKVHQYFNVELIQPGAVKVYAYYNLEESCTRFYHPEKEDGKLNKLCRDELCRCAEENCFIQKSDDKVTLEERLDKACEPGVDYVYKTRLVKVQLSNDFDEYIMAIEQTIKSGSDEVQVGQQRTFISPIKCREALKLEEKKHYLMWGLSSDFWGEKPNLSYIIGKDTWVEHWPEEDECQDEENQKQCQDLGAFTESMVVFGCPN
Chain of Human C3c (plasma-purified) (P01024 23-667, chain 1 of 3): as the sequence (P01024 23-667 limits assumed, chain 1 of 2) above
Chain of Human C3c (plasma-purified) (P01024 749-954, chain 2 of 3): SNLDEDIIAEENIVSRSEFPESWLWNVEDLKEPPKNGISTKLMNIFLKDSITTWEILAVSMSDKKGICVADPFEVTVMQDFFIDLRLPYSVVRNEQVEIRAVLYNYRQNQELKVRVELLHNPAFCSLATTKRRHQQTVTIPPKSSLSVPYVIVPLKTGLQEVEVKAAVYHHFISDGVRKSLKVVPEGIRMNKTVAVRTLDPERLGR
Chain of Human C3c (plasma-purified) (P01024 1321-1663, chain 3 of 3): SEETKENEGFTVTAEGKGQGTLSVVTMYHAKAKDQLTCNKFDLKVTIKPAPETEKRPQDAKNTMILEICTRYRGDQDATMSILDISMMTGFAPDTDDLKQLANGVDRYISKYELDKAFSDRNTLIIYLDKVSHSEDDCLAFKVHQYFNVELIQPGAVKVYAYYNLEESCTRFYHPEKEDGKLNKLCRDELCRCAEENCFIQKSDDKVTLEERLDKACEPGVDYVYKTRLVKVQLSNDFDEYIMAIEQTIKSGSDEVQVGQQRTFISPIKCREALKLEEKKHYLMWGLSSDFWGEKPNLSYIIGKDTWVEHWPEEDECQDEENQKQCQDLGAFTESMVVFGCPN

Row | Binder | inhibition of haemolysis of PNH-like erythrocytes by acidified normal human serum, IC50 [1] | rate of decay acceleration of C3b.Bb (SPR-based assay) [2] | binding result [3] | binding result [4] | binding result [5] | Kd [6] | Kd [7] | Kd [8] | Kd [9] | binding result [10] | binding result [11] | Kd [12] | Kd [13] | Kd [14] | binding result [15]
1 | PspCN (cleaved, PspC residues 37-140, S. pneumoniae strain D39) (other) ATENEGSTQAATSSNMAKTEHRKAAKQVVDEYIEKMLREIQLDRRKHTQNVALNIKLSAIKTKYLRELNVLEEKSKDELPSEIKAKLDAAFEKFKKDTLKPGEK | 28 nM | ~10 fold | no binding | no binding | no binding | – | – | – | – | – | – | – | – | – | –
2 | sPspCN (N-terminally hexaHis-SUMO-tagged PspC residues 37-140, S. pneumoniae strain D39) (other, not shown: N-terminal hexaHis-SUMO tag from the pE-SUMOpro Kan vector) ATENEGSTQAATSSNMAKTEHRKAAKQVVDEYIEKMLREIQLDRRKHTQNVALNIKLSAIKTKYLRELNVLEEKSKDELPSEIKAKLDAAFEKFKKDTLKPGEK | – | – | – | – | – | 1.3 nM | 0.012 nM | 26 nM | 0.045 pM | no binding | no binding | 1 nM and 2 nM | ~0.05 pM | 0.053 pM | no binding (tested: 50 nM (from the legend))
